Marks after values point to notes of the source that are not given here. Some results are limits rather than exact numbers.

For experiment [1], the system named is human heart muscle tissue. As to the kind of experiment: IHC on human cardiac tissue samples (TMA with malignant pheochromocytoma positive control). On the procedure: FIG. 19. A. Flowcytometry analysis with the 28-13-5G6-1D3-PE antibody were conducted on various human primary cells to exclude general off-target binding to the surface of these cell types. The following cell lines were studied: human primary adrenal cortical cells, human primary kidney epithelial cells, human primary cardiac microvascular endothelial cells, human primary liver epithelial cells and human primary vein smooth muscle cells. […] B. Original human primary cardiac cells were not available, and human cardiac tissue samples were therefore studied for staining of 13-5G6-1D3 by immunohistochemistry. […] If there were HCMV infections present in the human heart, they were always of productive infection type. […] The positive 13-5G6-1D3 and HCMV ISH results are marked with arrows in the figure. A colour version of FIG. 19 is also provided.

In experiment [2] the target is T1, HCMV US28 (strain DB) on CHO-US28-A1 cells (Human cytomegalovirus, UniProt P69332, D170N/D19A).
T1 construct: expressed in transfected cells; host or cells: CHO-K1 (vector pCDH-EF1a-MCS)
Kind of experiment: FACS surface binding to CHO-US28-A1 cells. As to the method:
Plasmid construction was performed to create a US28-overexpressing cell line. The US28 sequence, identical to HCMV DB strain (Acc. Number: KT959235; SEQ ID No. 5 of this application), fused to a 6His tag at its C terminal part, was inserted into the pCDH-EF1a-MCS vector (Creative Biolabs, Shirley, NY 11967, USA). The plasmid construct was transfected to CHO-K1 cell line. The cells were collected 48 hours after transfection. The cell line was named as CHO-US28-A1-6His and its protein sequence (SEQ ID NO: 47) is the following:
Flowcytometry was used to analyze cell surface binding by the US28 antibodies. Upon cell harvest, adherent non-infected and US28 overexpressing or HCMV infected cells were washed three times with cell staining buffer (phosphate-buffered saline (PBS (Amresco, Cleveland, 44139, USA) added 0.5% BSA and 0.05% Sodium Azide (NaN3)). The cells were trypisinized and then resuspended in DMEM with 10% FBS to inhibit the action of trypsin. The cells were then pelleted at 400×g for 10 minutes and washed three times in cell staining buffer. Cell viability and cell concentration were measured by tryphan blue viability assay and a cell counter (Countess, Invitrogen, Carlsbad, CA 92008, USA). The cell suspension was adjusted to 1×10^6 cells/mL with ice-cold cell staining buffer. The cells were blocked in 1 ml 10% FBS or 1% BSA in PBS per 1×10^6 cells, vortexed briefly, and incubated for 10-30 minutes to eliminate non-specific staining. The cells were then stained with the respective antibodies and appropriate negative controls.
The primary antibodies used were I) 13-5G6-1D3 (50 μg/ml) as a positive control; II) Monovalent and Bivalent VUN100 ScFvs 1:1 (50 μg/ml); III) test antibodies for the specified subclones (1:5).
The primary antibodies used were I) 13-5G6-1D3 1:50 to 50 μg/ml; and II) Commercial US28 polyclonal antibody (50 μg/ml), III) Monovalent and Bivalent VUN100 ScFvs (50 μg/ml) and for certain experiments, the appropriate isotype controls were included.
In both cases (ECD1 and ECD3), the antibodies were added to the cells, vortexed and incubated on ice for 15 to 30 minutes up to overnight and washed twice with cell staining buffer to remove any unbound antibodies. In addition, the CMV Immediate Early Antigen (IE) Alexa488 Ab, MAB810X, 1:50 was included to verify HCMV infected cells in one of the experiments. Because it binds to an intracellular, HCMV encoded protein, it was added after permeabilizing the cells in 70% ethanol for 30 min on ice.
1:500-1:5000 in cell staining buffer of the appropriate fluorescent-conjugated appropriate secondary antibodies were added and incubated on ice for 15-20 min in the dark. The cells were washed three times to remove any unbound antibodies. The cells were then fixed with 0.5% paraformaldehyde (PFA) for 30 min on ice and resuspended in 200-500 μL cell staining buffer for final flow cytometric analysis using an Accuri C6 flow cytometry system (BD Biosciences, San Jose, CA 95131, USA). Data analyses were performed using FlowJo software v8.8 (Treestar Inc. Ashland, OR 97520, USA).
Background levels were determined using the respective secondary antibodies (anti-mFc-FITC for the subclones, or anti-myc-PE for the VUN100 molecules) with CHO cells and CHO-US28 cells. Given that US28 is expressed on the cell surface, the cells were non-permeabilised for these experiments.

Experiment [3] relates to human astrocytoma and glioblastoma tissues. Kind of experiment: IHC in human brain cancer cohort (astrocytoma grade 1-3, glioblastoma grade 4, NAT). Also noted: key to IHC staining grade: stained negative (0); positive cytoplasmic staining (1+); moderately positive cytoplasmic staining (2+). An excerpt:
FIG. 17. Human glioblastoma tissues were studied with the US28-13-5G6-1D3 rAb and MAB810R antibodies by using IHC and with ISH analysis for HCMV DNA. […] The staining was present in several cells in each positive sample which was different from the breast cancer samples. However, the staining of the glia cells was weaker than for the US28-13-5G6-1D3 rAb. C. The brain tissue NAT is negative for 13-5G6-1D3 staining. […] The arrows indicate these signals. E. The staining of the same Gliobastoma grade IV sample is negative for the IgG antibody. F. The ISH analysis is negative for the same brain tissue NAT sample. The positive glia cells are indicated with arrows in the non-colour version of these figures. A colour version of FIG. 17 is provided on the page after the non-colour version.
FIG. 18. US28-13-5G6-1D3 staining of the human brain cancer cohort containing human astrocytoma grade 1-3 and glioblastoma grade 4 and NAT tissues. All the astrocytoma grade 1 (n=4) stained negative (0). Of the grade 2-3 astrocytomas, 6 stained negative (0), 37 had positive cytoplasmic staining (1+), and 2 had moderately positive cytoplasmic staining (2+). […] The ISH analysis confirmed presence of nuclear HCMV DNA in tumor cells of all tumor samples. Only 3 of 10 NAT samples were HCMV DNA positive.

B1: US28-13-5G6-1D3: monoclonal antibody against ECD3 of HCMV US28; VH SEQ ID NO: 12, VL SEQ ID NO: 18; rAb is the recombinant product (antibody, V domains shown)
VH: EVKLVESGGGLVQPGGSLRLACATSGFTFTDYYMSWVRQPPGKALEWLGFIRSKANGYTTEYSASVKGRFTISRDNSQSILYLQMNTLRSEDSATYYCARDERRTAWLAYWGQGTLVTVSA
VL: DVLMTQTPLSLPVSLGDQASISCRSSQSIVHSNGNTYLDWYLQKPGQSPKLLIYKVSNRFSGVPDRFSGSGSGTDFTLKISRVEAEDLGVYYCFQGSHVPTWTFGGGTKLEIK
modifications: Mature form of VH sequence of 1D3, without the leader sequence; Mature form of VL sequence of 1D3, without the leader sequence
notes: monoclonal antibody against ECD3 of HCMV US28; rAb is the recombinant product
In the case of B1, the “IHC staining of heart muscle tissue” value in experiment [1] was “negative”. The “binding to CHO-US28-A1 cells relative to any of the other 9 clones” value in experiment [2] (1:50 w/v Ab dilution) was 8-10 fold. Further, the CHO-US28-A1 cells bound/stained entry in experiment [2] (comparison with commercial US28 Ab, FIG. 11A) is “more than 50%”. In experiment [3] (all astrocytoma grade 1 (n=4)), this molecule had an IHC staining grade of 0. Besides, in experiment [3] (grade 2-3 astrocytomas), the “number of tumors stained negative (0)” value is reported as 6, the “number of tumors with moderately positive cytoplasmic staining (2+)” value was 2 and the “number of tumors with positive cytoplasmic staining (1+)” value is 37.

B2: 13-5G6-1D3: mouse monoclonal IgG1 kappa antibody against US28 ECD3; VH SEQ ID NO: 12, VL SEQ ID NO: 18 (antibody, V domains shown)
VH: EVKLVESGGGLVQPGGSLRLACATSGFTFTDYYMSWVRQPPGKALEWLGFIRSKANGYTTEYSASVKGRFTISRDNSQSILYLQMNTLRSEDSATYYCARDERRTAWLAYWGQGTLVTVSA
VL: DVLMTQTPLSLPVSLGDQASISCRSSQSIVHSNGNTYLDWYLQKPGQSPKLLIYKVSNRFSGVPDRFSGSGSGTDFTLKISRVEAEDLGVYYCFQGSHVPTWTFGGGTKLEIK
modifications: Mature form of VH sequence of 1D3, without the leader sequence; Mature form of VL sequence of 1D3, without the leader sequence
As to B2, the “IHC staining of malignant pheochromocytoma” value in experiment [1] (positive control on the same TMA plate) was “positive staining”. Further, the “IHC staining of brain tissue NAT” value in experiment [3] is given as “negative”.

B3: 13-5G6-1D3 rAb: recombinant antibody product of US28-13-5G6-1D3 produced in HEK293-F cells (antibody)
heavy: EVKLVESGGGLVQPGGSLRLACATSGFTFTDYYMSWVRQPPGKALEWLGFIRSKANGYTTEYSASVKGRFTISRDNSQSILYLQMNTLRSEDSATYYCARDERRTAWLAYWGQGTLVTVSAAKTTPPSVYPLAPGSAAQTNSMVTLGCLVKGYFPEPVTVTWNSGSLSSGVHTFPAVLQSDLYTLSSSVTVPSSTWPSETVTCNVAHPASSTKVDKKIVPRDCGCKPCICTVPEVSSVFIFPPKPKDVLTITLTPKVTCVVVDISKDDPEVQFSWFVDDVEVHTAQTQPREEQFNSTFRSVSELPIMHQDWLNGKEFKCRVNSAAFPAPIEKTISKTKGRPKAPQVYTIPPPKEQMAKDKVSLTCMITDFFPEDITVEWQWNGQPAENYKNTQPIMDTDGSYFIYSKLNVQKSNWEAGNTFTCSVLHEGLHNHHTEKSLSHSPGK
light: DVLMTQTPLSLPVSLGDQASISCRSSQSIVHSNGNTYLDWYLQKPGQSPKLLIYKVSNRFSGVPDRFSGSGSGTDFTLKISRVEAEDLGVYYCFQGSHVPTWTFGGGTKLEIKRADAAPTVSIFPPSSEQLTSGGASVVCFLNNFYPKDINVKWKIDGSERQNGVLNSWTDQDSKDSTYSMSSTLTLTKDEYERHNSYTCEATHKTSTSPIVKSFNRNEC
As to B3, the “Binding Specificity (ratio of surface binding)” value in experiment [2] (CHO-US28-A1 cells compared with US28 negative control CHO cells) is 21.5*. Besides, in experiment [2] (FIG. 7), the “higher surface binding to US28 expressing CHO cells than control CHO cells” value is reported as > 21 times.

Values taken from patent US20250296984A1, “THERAPEUTIC AND DIAGNOSTIC AGENTS AND USES THEREOF” (priority 2022, published 2025).
